B1: TPR t1 (parent)
chain: GACCAAUCUGCCCUCAGAGCUCGAGAACAUCUUCGGAUGCAGAGGAGGCAGGCUUCGGUGGCGCGAUAGCGCCAACGUCCUCAACCUCCAAUGCAUCCCACCACAUGAUGAUGCCUGAAGAGCCUUGGUUUUUUG

Variants of: B1
Assay: polymerase ribozyme fitness, log enrichment relative to wild type (log ratio); higher = more active; in vitro selection for triplet polymerase activity
Outline: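 PCR was used to build mutant libraries for each subunit of a heterodimeric triplet polymerase ribozyme, which were then transcribed. A single in vitro selection round, in triplicate, used a frozen incubation at −7 °C and recovered extended constructs by gel excision, streptavidin beads and RT-PCR. Fitness is the logarithm of genotype enrichment relative to wild-type enrichment, averaged over replicates with inverse-variance weights. The logarithm is base 2, and after Illumina sequencing only genotypes with ≥10 input reads and ≥1 read per output were kept.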

Variant	polymerase ribozyme fitness (log ratio)
A66C U133A	-0.805
A66U U81G U116G C124A	-5.38
G63C A84G	-1.73
G63A U125A	-1.21
G63C A121C	0.84
G63C A121G	0.727
C64A C86A U112G	-6.59
C62U G63C	-2.14
C62A G120A U133A	-0.165
G63A C72G C104G G120A G122U	-6.38
C62U U106C	-0.141
C64U C89U G117C	-4.79
C62U C85A U106G C123G	-1.11
G63U C86G A90U C104A G110U	-6.48
G65U G120U	-5.78
C62G A100C	-3.47
C62G U106A A108G C115A C123A	-5.43
G63A A103U	-6.64
G63A A83C G127A G128C	-3.2
C64U C104A	-1.31
G63A C82A	-2.53

Variant	polymerase ribozyme fitness (log ratio)
C62G G113C	-4.48
C62U G110C C124U U125A	-5.16
C62G C114U	-4.41
G63A C115U A119C	-5.84
C64U U87A U109C	-5.61
C64U A66U	-0.148
A66C A105U A108G C124A	-7.55
G61U U78C U116A	-2.17
G63C C123A G127A G135C	-0.151
C62U U129A	-1.09
G63C C104U	-0.59
C62G U132A	-0.911
C62U A66U C73G C104U U112C	-1.37
G63U G71C G113A	-6.74
C62G C80U	-2.03
G63U G93A	-1.31
G63C C114U	-2.19
G63C C114A	-2.44
C64U A111C C115A G127A	-4.2
C64U A83U	0.866
G63U A119U	-0.897

Variant	polymerase ribozyme fitness (log ratio)
G63U A119G	-0.465
C64G U112G G120A	-5.95
G63A C79A G93U	-4.19
G63A C97A	-6.64
G63A C88U	-1.46
C62A C82G G117A	-3.75
A66C G113A	-1.78
C62G A95G U132C	-1.55
C62U C115U	-1.22
G61U U92C	-1.84
G61U G135U	-1.65
C64A C70G A95U G110C C114U	-5.6
C64U C97U	-1.3
G63U C114A G122U	-3.44
C62A U87A A100C C115A	-2.71
C62U C101A	-0.746
C62U C101G	-1.35
G63U G120C	0.0622
A66G C86G	-1.77
C62U A66G A100U	-2.66
G63A G113C	-2.53

Variant	polymerase ribozyme fitness (log ratio)
G63A G113C U133A	-4.26
C62U A91C	-1.43
G63A C64U	-5.38
C62A U126G	-2.4
A66G C123G U133A	1.16
C64U A95G G117C	-4.22
A66G C124G	1.19
A68G A100U U133A	-3.27
A66C A74C A111C	-2.24
A68G C114A	-3.39
C62A C73G G117C U129G	-6.43
C62U C72G C94A	-3.29
C62G C123A	-1.01
G63U C85A G128A	-4.29
C64G U78C	-6.9
G63C G110U	-2.57
G63C C86A U96G C102A	-5.23
A68G C80A	-6.54
C64U U81A	-0.925
G63A U78C A95G	-0.717
